Measurements: patent US20230076063

Key:
Assay in all cases: cell_activity
[1] = system: MamA E270A E270A (Mycobacterium tuberculosis); conditions: SMRT sequencing kinetics; partial stochastic methylation
[2] = system: MamA G152S G152S (Mycobacterium tuberculosis); conditions: SMRT sequencing kinetics; partial stochastic methylation
[3] = system: MamA W136R W136R (Mycobacterium tuberculosis); conditions: SMRT sequencing kinetics; methylation knockout, binding itself not measured
[4] = system: MamB K1033T K1033T (Mycobacterium tuberculosis); conditions: SMRT sequencing kinetics; single isolate

“CTGGAG (double strand) [MamA target motif sites]” showed an activity (mean SMALR native score) [1] of 0.0558, an activity (mean SMALR native score) [2] of 0.766 and an activity (mean SMALR native score) [3] of -0.107.

MamB target motif sites showed an activity (mean SMALR native score) [4] of 0.299.
